Earlier results in PMC4277939.

Molecular target: EAG channel PAS domain PAS domain (Mus musculus) (UniProt Q60603)

Kd: 10 µM
Substance: EAG channel CNBh domain CNBh domain (from UniProt Q60603)
